Biological target: PD-L1蛋白 (expressed on CHO-K1-PD-L1 cells) (Homo sapiens (Human), UniProt Q9NZQ7 19-290)
Assay: flow cytometry on CHO-K1-PD-L1 cells, Alexa-647 anti-human Fc secondary antibody

Chain of PD-L1蛋白 (expressed on CHO-K1-PD-L1 cells) (Q9NZQ7 19-290 limits assumed): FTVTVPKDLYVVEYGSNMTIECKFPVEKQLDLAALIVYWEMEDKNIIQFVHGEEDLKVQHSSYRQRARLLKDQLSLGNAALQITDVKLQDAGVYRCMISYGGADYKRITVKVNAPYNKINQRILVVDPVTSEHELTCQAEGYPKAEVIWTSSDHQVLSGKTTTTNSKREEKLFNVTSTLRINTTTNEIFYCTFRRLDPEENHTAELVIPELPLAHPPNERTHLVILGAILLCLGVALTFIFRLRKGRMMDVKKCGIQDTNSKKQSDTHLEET

Row | Binder | binding result
1 | CD3×PD1mut双特异抗体 (bispecific antibody, Two-chain knob-into-hole heterodimer with human IgG1 Fc) chain 1: EVQLLESGGGLVQPGGSLKLSCAASGFTFNTYAMNWVRQAPGKGLEWVARIRSKYNNYATYYADSVKDRFTISRDDSKNTAYLQMNNLKTEDTAVYYCVRHGNFGNSYVSWFAYWGQGTLVTVSSGGGGSGGGGSGGGGSELVVTQEPSLTVSPGGTVTLTCRSSTGAVTTSNYANWVQQKPGQAPRGLIGGTNKRAPGTPARFSGSLLGGKAALTLSGVQPEDEAEYYCALWYSNLWVFGGGTKLTVLGGGGSPKSCDKTHTCPPCPAPELLGGPSVFLFPPKPKDTLMISRTPEVTCVVVAVSHEDPEVKFNWYVDGVEVHNAKTKPREEQYASTYRVVSVLTVLHQDWLNGKEYKCKVSNKALPAPIEKTISKAKGQPREPQVYTLPPSREEMTKNQVSLWCLVKGFYPSDIAVEWESNGQPENNYKTTPPVLDSDGSFFLYSKLTVDKSRWQQGNVFSCSVMHEALHNHYTQKSLSLSPGK chain 2: not shown | binds
2 | CD3×PD1双特异抗体 (bispecific antibody, Two-chain knob-into-hole heterodimer with human IgG1 Fc) chain 1: EVQLLESGGGLVQPGGSLKLSCAASGFTFNTYAMNWVRQAPGKGLEWVARIRSKYNNYATYYADSVKDRFTISRDDSKNTAYLQMNNLKTEDTAVYYCVRHGNFGNSYVSWFAYWGQGTLVTVSSGGGGSGGGGSGGGGSELVVTQEPSLTVSPGGTVTLTCRSSTGAVTTSNYANWVQQKPGQAPRGLIGGTNKRAPGTPARFSGSLLGGKAALTLSGVQPEDEAEYYCALWYSNLWVFGGGTKLTVLGGGGSPKSCDKTHTCPPCPAPELLGGPSVFLFPPKPKDTLMISRTPEVTCVVVAVSHEDPEVKFNWYVDGVEVHNAKTKPREEQYASTYRVVSVLTVLHQDWLNGKEYKCKVSNKALPAPIEKTISKAKGQPREPQVYTLPPSREEMTKNQVSLWCLVKGFYPSDIAVEWESNGQPENNYKTTPPVLDSDGSFFLYSKLTVDKSRWQQGNVFSCSVMHEALHNHYTQKSLSLSPGK chain 2: not shown | binds

Reference: patent publication CN114409797A (HEFEN TIANKPORT IMMUNOLOGICAL DRUG CO LTD, dated 2022)
